This is an account of results in article doi:10.1101/2020.07.24.220665 (bioRxiv, 2020).

This data set deals with the molecule itself. In words: non-reducing PAGE.

“And” between values parts separate entries of the source, which are not always exact repeats. Equal values may be shown once.

B1: granulin-3 (GRN-3) (natural protein, UniProt P28799 206-261, looked up)
chain: VMCPDARSRCPDGSTCCELPSGKWGCCPMPNATCCSDHLHCCPQDTVCDLIQSKCL
Broadly, the stoichiometry N is a count of units in the complex or per binding partner. Take B1: the “stoichiometry N” value is 2 and 3.

B2: granulin-5 (GRN-5) (natural protein, UniProt P28799 364-417, looked up)
chain: VPCDNVSSCPSSDTCCQLTSGEWGCCPIPEAVCCSDHQHCCPQGYTCVAEGQCQ
For B2, the binding result was “binds”.
